Consider two molecules from patent US20220098591, “STEM-LOOP COMPOSITIONS AND METHODS FOR INHIBITING VASCULAR ENDOTHELIAL GROWTN FACTOR” (DRIVE THERAPEUTICS LLC, published 2022).

Data set [1] has as its target T1, VEGF-A165 (Homo sapiens).
T1 chain: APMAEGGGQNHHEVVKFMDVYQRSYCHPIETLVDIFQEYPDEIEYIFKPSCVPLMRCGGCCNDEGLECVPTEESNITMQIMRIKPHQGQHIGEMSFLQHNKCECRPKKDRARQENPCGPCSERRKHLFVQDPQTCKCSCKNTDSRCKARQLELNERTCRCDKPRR
Description: direct TR-FRET, RT; limited by VEGF-A concentration. The conditions noted are these: tags: glycan-biotinylated for SPR/FRET/AlphaLISA; Acro BioSystems, R&D Systems; chain copies: 2 (inferred); stem-loop.

For data set [2], the target named is T1, VEGF-A165. Description: competition; AlphaLISA, blocks KDR binding; limited by VEGF-A concentration. Conditions: tags: glycan-biotinylated for SPR/FRET/AlphaLISA; Acro BioSystems, R&D Systems; chain copies: 2 (inferred); stem-loop.
In data set [3] the target is T2, VEGF-A121 (Homo sapiens, UniProt P15692 SEQ:1-121). Nature of the data set: competition; AlphaLISA, blocks KDR binding. Conditions: tags: glycan-biotinylated for SPR/FRET/AlphaLISA; Acro BioSystems, Biolegend; chain copies: 2 (stated); stem-loop. (Alpha assays give light when donor and acceptor beads are brought close together.)
Target sequence in this assay (P15692 other isoform, or with tags, fused parts or gaps): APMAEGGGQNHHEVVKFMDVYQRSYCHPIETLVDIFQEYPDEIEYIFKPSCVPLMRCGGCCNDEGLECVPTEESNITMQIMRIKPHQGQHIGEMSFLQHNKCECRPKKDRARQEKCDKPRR
The target of data set [4] is T2, VEGF-A121. Nature of the data set: direct TR-FRET, RT. The conditions noted are these: tags: glycan-biotinylated for SPR/FRET/AlphaLISA; Acro BioSystems, Biolegend; chain copies: 2 (stated); stem-loop. On the procedure: (§1) Briefly, ALEXA FLUOR® 647-labeled aptamers were heated to 90° C. for 3 minutes and cooled to room temperature. Titrations of ALEXA FLUOR® 647-labeled aptamers and ALEXA FLUOR® 647-labeled anti-VEGF-A antibody were made in TR-FRET buffer (50 mM MOPS, pH 7.4, 125 mM NaCl, 5 mM KCl, 50 μM CHAPS, 0.1 mg/mL BSA, 1 mM CaCl₂, and 1 mM MgCl₂) in a polypropylene plate. 5 μL of aptamers or antibody were transferred to the black wall low volume 384 well assay plate (Greiner), followed by 5 μL glycan biotinylated VEGF-A₁₂₁ (2.5 nM final), and 5 μL Streptavidin-Eu (Perkin Elmer; 2.5 nM final). The plate was covered with a plate seal and subsequently incubated in the dark for 2 hours at room temperature. The plate was read on a Biotek CYTATION™ 5 plate reader. Samples were excited at 330 nm and fluorescent values were collected at 665 nm.
(§2) No protein background fluorescent values were averaged and subtracted from test compounds, with data normalized as a fold change to highest concentrations of aptamers and antibody. These values were fit using a four-parameter non-linear fit in GraphPad Prism Version 7.0.
A general note: In TR-FRET formats the signal depends on donor and acceptor labels being close together.

For data set [5], the target named is T1, VEGF-A165. Nature of the data set: direct TR-FRET, MOPS pH 7.4, 1 mM CaCl2, 1 mM MgCl2, RT. Conditions: tags: glycan-biotinylated for SPR/FRET/AlphaLISA; Acro BioSystems, R&D Systems; chain copies: 2 (inferred); stem-loop.
Data set [6] concerns the target T2, VEGF-A121. Description: direct TR-FRET, RT; error not given. The conditions noted are these: tags: glycan-biotinylated for SPR/FRET/AlphaLISA; Acro BioSystems, Biolegend; chain copies: 2 (stated); stem-loop. On the procedure:
as §1, §2

Data set [7] has as its target T2, VEGF-A121. Nature of the data set: SPR; HEPES pH 7.4, 1 mM MgCl2, 1 mM CaCl2. The conditions noted are these: tags: glycan-biotinylated for SPR/FRET/AlphaLISA; Acro BioSystems, Biolegend; chain copies: 2 (stated); stem-loop. On the procedure: (§3) Aptamer 26 was identical in sequence to Aptamer 4.2 but contained a hexylamine linker in place of the C6 disulfide linker at the 5′ terminus. […] Briefly, in the SPR studies, 1.0-2.5 μg/mL of glycan biotinylated VEGF-A₁₆₅, VEGF-A₁₂₁, and VEGF-A₁₁₀ were diluted in HEPES running buffer (10 mM HEPES, 137.5 mM NaCl, 5.7 mM KCl, 1 mM MgCl₂, 1 mM CaCl₂, and 0.05% Tween20; pH 7.4) and immobilized to a streptavidin dextran chip (GE Healthcare Life Sciences) for 1-2 minutes. The chip was then blocked with 0.2 mg/mL biotin in running buffer, followed by 3 cycles of buffer blanks and regenerated with 50 mM NaOH to equilibrate the chip. […] After coating and blocking, samples were screened at 100 nM in duplicate injections at a flow rate of 25 μL/min, with an association time of 3 minutes 20 seconds and a dissociation time of 10 minutes. Regeneration conditions of chips were optimized based on the protein immobilized and effected with either 50 mM NaOH for 30 seconds or 2M guanidine HCl for 2×40 seconds.
(§4) Data was fit to a 1:1 kinetic binding model.

The next data set concerns the target VEGF-A110 (Homo sapiens, UniProt P15692 SEQ:1-110). Description: SPR; HEPES pH 7.4, 1 mM MgCl2, 1 mM CaCl2. The conditions noted are these: tags: glycan-biotinylated; chain copies: 2 (stated); stem-loop. As for the experimental part: as §3, §4
The target in data set [8] is T1, VEGF-A165. Nature of the data set: SPR; HEPES pH 7.4, 137.5 mM NaCl, 1 mM MgCl2, 1 mM CaCl2. Conditions: tags: glycan-biotinylated for SPR/FRET/AlphaLISA; Acro BioSystems, R&D Systems; chain copies: 2 (inferred); stem-loop. As for the experimental part:
as §3, §4

Data set [9] concerns the target T1, VEGF-A165. Nature of the data set: competition; AlphaLISA, blocks KDR binding. The conditions noted are these: tags: glycan-biotinylated for SPR/FRET/AlphaLISA; Acro BioSystems, R&D Systems; chain copies: 2 (inferred); stem-loop.
Description: Briefly, the aptamers were heated at 90° C. for 3 minutes and allowed to cool to room temperature for a minimum of 10 minutes. Aptamers and anti-VEGF-A antibody were serial diluted in a polypropylene plate and 5 μL was transferred to a white low volume 384 well Optiplate (Perkin Elmer). A solution of VEGF-A₁₆₅ (Acro BioSystems) or VEGF-A₁₂₁ (Acro BioSystems) that was glycan biotinylated was prepared and added to the assay plate containing aptamers or anti-VEGF-A antibody to yield a final assay concentration of 2 nM. A mixture of human recombinant his-tagged KDR, (Sino Biological), AlphaLISA® nickel chelate acceptor beads (Perkin Elmer), and AlphaScreen® streptavidin donor beads (Perkin Elmer) was then prepared and 10 μL was added to the assay plate. The final concentrations of KDR and beads were 5 nM and 5 ug/mL, respectively. The assay plate was sealed and incubated in the dark for approximately 2 hours, after which it was read on a Biotek CYTATION™ 5 plate reader using the Alpha 384 well optical cube. The low signal control was determined using excess anti-VEGF-A inhibitor and the high signal control was determined by buffer only.
The mechanism of action of lead aptamers was characterized by interrogating their ability to inhibit the VEGF-A:KDR interaction with both VEGF-A₁₆₅ and VEGF-A₁₂₁.

B1: Aptamer 141 (ssRNA)
RNA: AGGCCGACCCGCGCGGAGGGGUUUCAUUAUCCCGUUUGUCGGCUU
modifications: all G 2'-F; A,C,U 2'-OMe; Sp3 joins the two parts (position 9); 5' C6NH2; 3' idT
As to B1, the dissociation constant (Kd) with VEGF-A165 [1] is 1.2 nM; with VEGF-A121 [4] it was 4.3 nM. Moreover, the IC50 came to 0.81 nM with VEGF-A165 [2] and 3.2 nM with VEGF-A121 [3].

B2: Aptamer 26 (ssRNA)
RNA: UAGGCCGCCUCCGCGCGGAGGGGUUUCAUUAUCCCGUUUGGCGGCUUU
modifications: all G 2'-F; all A,C,U 2'-OMe; 5' C6NH2; 3' idT (Tables 14-16 print it without the terminal U residues)
Consider B2, for which the Kd with VEGF-A165 [5] turned out to be 4 nM; in the data set with VEGF-A121 [6] it was 46 nM; with VEGF-A121 [7], 4.6 nM; with VEGF-A110 it was 9.9 nM; in the data set with VEGF-A165 [8], 0.5 nM. Also, the IC50 is 19 nM with VEGF-A121 [3] and 3.7 nM with VEGF-A165 [9].

What is called Kd is the constant that tells how readily two partners part at equilibrium. Usually IC50 stands for the concentration that inhibits the measured activity by half.
